Laboratory results published in US20250163158A1 (Astellas, published 2025).

Molecular target: T1, integrin α11 (ITGA11) (human, UniProt Q9UKX5 23-1188)
T1 sequence (looked up): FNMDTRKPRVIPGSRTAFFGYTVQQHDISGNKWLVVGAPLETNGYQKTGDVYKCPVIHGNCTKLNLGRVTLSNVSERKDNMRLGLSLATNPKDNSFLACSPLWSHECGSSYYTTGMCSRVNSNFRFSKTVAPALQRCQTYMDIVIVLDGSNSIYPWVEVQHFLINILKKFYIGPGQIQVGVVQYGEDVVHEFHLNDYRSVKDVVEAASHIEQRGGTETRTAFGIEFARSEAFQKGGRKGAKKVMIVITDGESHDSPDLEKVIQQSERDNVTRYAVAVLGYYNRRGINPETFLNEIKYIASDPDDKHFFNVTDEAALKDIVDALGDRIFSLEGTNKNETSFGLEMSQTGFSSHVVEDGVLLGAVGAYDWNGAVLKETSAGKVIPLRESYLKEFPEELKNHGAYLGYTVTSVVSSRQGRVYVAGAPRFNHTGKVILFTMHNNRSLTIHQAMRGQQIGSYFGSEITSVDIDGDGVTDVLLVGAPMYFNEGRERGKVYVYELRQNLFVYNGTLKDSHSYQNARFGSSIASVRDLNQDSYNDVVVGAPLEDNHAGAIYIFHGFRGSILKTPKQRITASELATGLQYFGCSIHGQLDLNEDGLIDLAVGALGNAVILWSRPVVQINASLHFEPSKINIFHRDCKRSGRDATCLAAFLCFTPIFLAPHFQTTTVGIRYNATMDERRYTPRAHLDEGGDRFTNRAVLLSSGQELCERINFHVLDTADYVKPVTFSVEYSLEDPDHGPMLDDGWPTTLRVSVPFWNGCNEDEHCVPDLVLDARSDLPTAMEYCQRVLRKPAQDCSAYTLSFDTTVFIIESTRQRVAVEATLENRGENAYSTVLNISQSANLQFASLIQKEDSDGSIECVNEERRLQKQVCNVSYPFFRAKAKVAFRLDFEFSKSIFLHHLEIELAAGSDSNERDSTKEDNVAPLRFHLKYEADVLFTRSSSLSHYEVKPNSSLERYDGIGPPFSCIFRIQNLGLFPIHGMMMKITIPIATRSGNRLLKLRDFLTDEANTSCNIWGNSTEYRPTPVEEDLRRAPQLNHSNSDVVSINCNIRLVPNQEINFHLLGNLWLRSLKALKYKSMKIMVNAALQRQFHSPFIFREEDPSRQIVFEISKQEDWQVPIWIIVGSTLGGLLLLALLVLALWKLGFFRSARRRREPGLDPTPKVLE
Assay: cell-based or functional assay

luminescence intensity ratio, ADCC Reporter Bioassay kit, non-senescent IMR-90 cell, relative to the cell without antibody regarded as 1: 1.4 ratio | luminescence intensity ratio, ADCC Reporter Bioassay kit, senescent IMR-90 cell, relative to the cell without antibody regarded as 1: 4.7 ratio
B1: anti-ITGA11 antibody #014 (antibody, mouse IgG2a, kappa, V domains shown)
VH: EVQLVESGGGLVQPGGSLRLSCAASGFNLTSSYIHWVRQAPGKGLEWVASISSHSSYTYYADSVKGRFTISADTSKNTAYLQMNSLRAEDTAVYYCARYWYYSAWALDYWGQGTLVTVSS
VL: DIQMTQSPSSLSASVGDRVTITCRASQSVSSAVAWYQQKPGKAPKLLIYSASSLYSGVPSRFSGSRSGTDFTLTISSLQPEDFATYYCQQSAPYSSLITFGQGTKVEIKR
